Results published in article PMC11189300 (2024).

B1: KNL1 residues 2,026–2,342 [human] / Mis12 complex (Mis12C), full length: MIS12, PMF1, NSL1, DSN1 [human] (parent complex)
chain 1: SAQNEREKLQIKIDEMDKILKKIDNCLTEMETETKNLEDEEKNNPVEEWDSEMRAAEKELEQLKTEEEELQRNLLELEVQKEQTLAQIDFMQKQRNRTEELLDQLSLSEWDVVEWSDDQAVFTFVYDTIQLTITFEESVVGFPFLDKRYRKIVDVNFQSLLDEDQAPPSSLLVHKLIFQYVEEKESWKKTCTTQHQLPKMLEEFSLVVHHCRLLGEEIEYLKRWGPNYNLMNIDINNNELRLLFSSSAAFAKFEITLFLSAYYPSVPLPSTIQNHVGNTSQDDIATILSKVPLENNYLKNVVKQIYQDLFQDCHFYH
chain 2: MSVDPMTYEAQFFGFTPQTCMLRIYIAFQDYLFEVMQAVEQVILKKLDGIPDCDISPVQIRKCTEKFLCFMKGHFDNLFSKMEQLFLQLILRIPSNILLPEDKCKETPYSEEDFQHLQKEIEQLQEKYKTELCTKQALLAELEEQKIVQAKLKQTLTFFDELHNVGRDHGTSDFRESLVSLVQNSRKLQNIRDNVEKESKRLKIS
chain 3: MAEASSANLGSGCEEKRHEGSSSESVPPGTTISRVKLLDTMVDTFLQKLVAAGSYQRFTDCYKCFYQLQPAMTQQIYDKFIAQLQTSIREEISDIKEEGNLEAVLNALDKIVEEGKVRKEPAWRPSGIPEKDLHSVMAPYFLQQRDTLRRHVQKQEAENQQLADAVLAGRRQVEELQLQVQAQQQAWQALHREQRELVAVLREPE
chain 4: MAGSPELVVLDPPWDKELAAGTESQALVSATPREDFRVRCTSKRAVTEMLQLCGRFVQKLGDALPEEIREPALRDAQWTFESAVQENISINGQAWQEASDNCFMDSDIKVLEDQFDEIIVDIATKRKQYPRKILECVIKTIKAKQEILKQYHPVVHPLDLKYDPDPAPHMENLKCRGETVAKEISEAMKSLPALIEQGEGFSQVLRMQPVIHLQRIHQEVFSSCHRKPDAKPENFITQIETTPTETASRKTSDMVLKRKQTKDCPQRKWYPLRPKKINLDT
chain 5: MTSVTRSEIIDEKGPVMSKTHDHQLESSLSPVEVFAKTSASLEMNQGVSEERIHLGSSPKKGGNCDLSHQERLQSKSLHLSPQEQSASYQDRRQSWRRASMKETNRRKSLHPIHQGITELSRSISVDLAESKRLGCLLLSSFQFSIQKLEPFLRDTKGFSLESFRAKASSLSEELKHFADGLETDGTLQKCFEDSNGKASDFSLEASVAEMKEYITKFSLERQTWDQLLLHYQQEAKEILSRGSTEAKITEVKVEPMTYLGSSQNEVLNTKPDYQKILQNQSKVFDCMELVMDELQGSVKQLQAFMDESTQCFQKVSVQLGKRSMQQLDPSPARKLLKLQLQNPPAIHGSGSGSCQ

Variants of: B1
Assay: ITC; syringe KNL1^M2; cell Mis12C^WT; parent: 1.56 nM

| Kd | Variant |
| --- | --- |
| 109 nM | chain 1 M231A, chain 1 S247W, chain 1 F250A, chain 1 K252E |

Variants of: B1
Assay: ITC; syringe KNL1^M1; cell Mis12C^WT; parent: 1.56 nM

| Kd | Variant |
| --- | --- |
| 140 nM | chain 1 M231A, chain 1 S247W, chain 1 F250A, chain 1 K252A |

Variants of: B1
Assay: ITC; syringe KNL1^WT; cell Mis12C^M2; parent: 1.56 nM

| Kd | Variant |
| --- | --- |
| 24.8 nM | chain 3 R195E, chain 3 V198L, chain 5 L290F |

Variants of: B1
Assay: ITC; syringe KNL1^WT; cell Mis12C^M1; parent: -12

| dG | Variant |
| --- | --- |
| -10 | chain 3 R195A, chain 3 V198L, chain 5 L290F |
